3 substances from patent US20200207829A1, “CHIMERIC RECEPTORS” (Oxford University Innovation Limited, priority 2017, published 2020) can be followed below.

Targets include dCas9(N/C)-synBDKRB2; TMt-NES-dCas9VP64; TMt-dCas9(N/C)VP64; dCas9(N/C)-synVEGFR1/2RI.
Common to all, as to experiment: cell-based or functional assay
For assay [1], the target named is VEGFR2:TEV(N)-NES-dCas9(N)/VEGFR1:TEV(C)-NLS-dCas9(C)VP64 heterodimer, both with TCS(QG).
In assay [2] the target is dCas9(N/C)-synVEGFR1/2 (heterodimer of dCas9(N)-synVEGFR2 with TCS(QL) and dCas9(C)-synVEGFR1 with TCS(QG)).

Chain of VEGFA121 (P15692 other isoform, or with tags, fused parts or gaps limits assumed): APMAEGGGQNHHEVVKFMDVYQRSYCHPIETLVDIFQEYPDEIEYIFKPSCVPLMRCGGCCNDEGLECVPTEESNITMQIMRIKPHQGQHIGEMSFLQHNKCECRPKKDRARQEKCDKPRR

For “Bradykinin (from UniProt P01042 381-389) (peptide)”, in the assay with dCas9(N/C)-synBDKRB2, the fold increase in EYFP output activation score (HTLA cells) is > 900 fold and the half-maximal effective agonist concentration (EC50), EYFP reporter dose-response, 0.01 nM-10 µM bradykinin was 603 nM.
“TEV protease (from UniProt P04517 2038-2273) (enzyme)” yielded a fold increase in reporter activation score upon TEV expression with TMt-NES-dCas9VP64 of 35 fold. Besides, in the assay with TMt-dCas9(N/C)VP64, the fold increase in output reporter activation score stood at 234 fold.
The substance “VEGFA121 (from UniProt P15692 181-395) (ligand)” yielded an EYFP activation score, VEGFA121-dependent ON/OFF fold differential (HEK-293T reporter assay) in assay [1] of 5.5 fold. Further, in assay [2], the ASCL1 mRNA levels, RT-qPCR (FIG. 2F legend) turned out to be 50 fold; the ASCL1 mRNA levels, RT-qPCR, relative to the no-agonist condition is 48.3 fold; the TNFα mRNA, RT-qPCR, relative to no-agonist conditions amounted to 18 fold; the TSP-1 mRNA, RT-qPCR, relative to no-agonist conditions was 16.2 fold. In assay [2], the fold increase in EYFP activation score (FIG. 2D) is 1180 fold and the fold increase in EYFP activation score (HEK-293T reporter assay) is 1000 fold. Also, the EYFP target gene induction with VEGFA121 and rapamycin together (AND gate, with FRB-VP64) in the assay with dCas9(N/C)-synVEGFR1/2RI was > 90 fold.
